B1: TPR t1 (parent)
chain: GACCAAUCUGCCCUCAGAGCUCGAGAACAUCUUCGGAUGCAGAGGAGGCAGGCUUCGGUGGCGCGAUAGCGCCAACGUCCUCAACCUCCAAUGCAUCCCACCACAUGAUGAUGCCUGAAGAGCCUUGGUUUUUUG

Variants of: B1
Assay: polymerase ribozyme fitness, log enrichment relative to wild type (log ratio); higher = more active; in vitro selection for triplet polymerase activity
In short: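 Mutant libraries of each subunit of a heterodimeric triplet polymerase ribozyme were built by PCR and transcribed. Each library went through one round of in vitro selection in triplicate: annealing with biotinylated primer, partner subunit and triplets, frozen incubation at −7 °C, gel excision of extended constructs, streptavidin-bead capture and RT-PCR. Input and output libraries were Illumina-sequenced; only genotypes with ≥10 input reads and ≥1 read per output were kept. Fitness is log2(genotype enrichment/wild-type enrichment), using inverse-variance-weighted replicate averages.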

Variant	polymerase ribozyme fitness (log ratio)
GACCAAUCUGCCCUAAGAGCUCGAGAACAUCUUCGGAUGCAGAGGAGGCAGGCAUAGGUGGCGCGAUAGCGCCAACGUCCUCAACCUCCAAUGCAUCCCACCACAUGAUGAUGCCUGAAGAGCCUUGGUUUUUUG	-2.64
GACCAAUCUGCCCUCAGAGCUCGAGAACAUCUCCGGAUGCAGAGGAGGCAGGCUUCGGUGGCGCGAUAGCGCCAACGUCCUCAACCUCCAAUGCAUCCCACCACAUGAUGAUGCCUGAAUAGCCUUGGUUUUUUG	-4.63
GACCAAUCUGCCCUCAGAGCUCGAGAACAUCUUCGGAUGCAGAGGAGGCAGGCUUCGGUGGCGCGAUAGCGCCAACGUCCUCAACCUCCAAUGCAUCCCACCACAUGAUGAUGCCUGAAGAGCCAUGGUUUUUUG	-0.431
GACCAAUCUGCACUCAGAGCUCGAGAACAUCUUCGGAUGCAGAGGAGGCAGGCUUCGGUGGCGCGAUAGCGCCAACGUCCUCAACCUCCAAUGCAUCCCACCACAUGAUGUUGCCUGAAGAGCCUUGGUUUUUUG	-2.77
GACCAAUCUGCCUUCAGAGCUCGAGAACAUCUUCGGAUGCGGAGGAGGGAGGCUUCGGUGGCGCGAUAGCGCCAACGUCCUCAACCACCAAUGCAUCCCACCACAUGAUGAUGCCUGAAGAGCCUUGGUUUUUUG	-0.587
GACCAAUCUGCCCUCGGAGCUCGAGAACAUCUUCGGAUGCAGAGGAGGCAGGCUACGGUAGCGCGAUAGCGCCAACGUCCUCAACCUCCAAUUCAUCCCACUACAUGAUGAUGCCUGAAGAGCCUUGGUGUUUUG	-3.39
GACCAAUCUGCCCUCAGAGCUCGAGAACAUCUUCGGAUGCAGAAGAGGCAGGCUUCGGUGGCGCGAUAGCGCCAACGUCCUCAACCUCCAAUGCAUCCAACCACAUGAUGAUGACUGAAGAGCCUUGGUUUUUUG	-5.96
GACCAAUAUGCCCUCAGAGCUCGAGAACAUCUUCGGAUGCAGAUGAGGCAGGCUUCGGUGGCGCGAUAGCGCCAACGUCCUCAACCUCCAAUGCAUCCCACCACAUGAUGAUGCCUGAAGAGUCUUGGUUUUUUG	0.898
GACCAAUCUGCCCUCAGAGCUCGAGAACAUCUUCGGAUGCACAGGAGGCAGGCUUCGGUGGCGCGAUAGCGCCAACGUCCUCAACCUCCAAUGCAGCCCACCACAUGAUGAUGCCUGAAGAGCUUUGGUUUUUUG	-0.43
GACCAAUCUGCCCUUAGAGAUCGAGAACAUCUUCGGAUGCAAAGGAGGCAGGCUUCGGUGGCGCGAUAGCGCCAACGUCCUCAACCUCCAAUGCAUCCCACCACAUGAUGAUGCCUGAAGAGCAUUGGUCUUUUG	-2.95
GACCAAUCUGCCCUCAGAGCUCGAGAACAUCUUCGGAUGCUGAGGAGGCAGGCUUCGGUGGCGCGAUAGCGCCAACGUCCUCAACCUCCAAUGCAUCCCACCACAUGAUGAUGCCUGAAGAGCCGUGGUUUUUUG	-1.97
GACCAAUCUGCCCUAAGAGCUCGAGAACAUCUUCGGAUGCAGAGGAGGCAGGCUUCGGUGGCGCGAUAGCGCCAACGUCCUUAACCUCAAAUGCAACCCACCAUAUGAUGAUGCCUGAAGAGCCUUGGUUUUUUG	-3.39
GACCAAUCUGCCCUCAGAGCUCGAGAACAUCUUCGGAUACAGUGGAGGCAGGCUUCGGUGGCGCGAUAGCGGCAACGUCCUCAACCUCCAAUGCAUCCCACCACAUGAUGAUGCCUGAAGAGCCUUGGUUUUUUG	-1.83
GACCAAUCUGCCCUCAGAGCUCGAGAACAUCUUCGGAUGCAGAGGAGGCAGGCUUCGGUGGCGCGAUAGCGCCAACGUCCUCAGCCUCCAAUGCAUCCCACCACAUGAUGAUGCCUGAAGAGCCUUGCUUUUUUG	-3.48
GACCAAUCUGCCCUCAGAGCUCGAGAACAUCUUCGGAUUCAGAGGAGGCAGGCUUCGGUGGCGCGAUAGCGCCAACGUCCUCAACCUCCAAUGCAUCCCACCACAUGAUGAUGCCUAAAGAGCCUUGGUUUUUUG	-2.1
GACCAAUCUGCCCUCAGAGCUCGAGAACAUCUUCGGAUGCGGAGGAGGCAGGCUUCGGUGGCGCGAUAGCGACAACGUCCUCAACCUCCAAUGCAUCUCACCACAUGAUGAUGCCUGAAGAGCUUUGGUUUUUUG	0.986
GACCAAUCUGCCCUCAGAGCUCGAGAACAUCUUCGGAUACAGAGGAGGCAGGCUUCGGUGGCGCGAUAGCGCCUACGUCCUAAACCUCCAAUGCAUCCCACCACAUGAUGAUGCCUGAAGAGCCUUGGUUUUUUG	-0.903
GACCAAUAUGCCCUCAGAGCUCGAGAACAUCUUCGGAUGCAGAGGAGGCAGGCUUCGGGGGCGCGAUAGCGCCAACGUCCUCAACCUCCAAUGCAUCCCACCACAUUAUGAUGCCUGAAGAGCCUUGGUUUUUUG	-5.05
GACCAAUCUGCCCUCAGAGCUCGAGAACAUCUUCGGAUGCAGAGGAGGCAGGCUUCGAUGGCGCGAUAGCGCUAACGUCCUCAACCUCCAAUGCAUCCCACCACAUGAUGAUGCCUGAAGAGCCUUGGUUUUUUG	-0.192
GACCAAUCUGCCCUCAGAGCUCGAGAACAUCUUCGGAUGCAUAGGAGGCAGGCUUCGGUGGCGCGAUAGCGCCAACGUCCUCAACCUCCAAUGCAUCCCACCACAUGAGGAUGCCUGAAGAGCCUUGGUUUUUUG	-5.53
GACCAAUCUGCCCUCAGAGCUCGAGAACAUCUUCGGACGCAGAGGCGGCAGGAUUCGGUGGCGCGAUAGCGCCAAGGUCUUCAACCUCCAAUGUAUCCCACCACAUGAUGAUGCCUGAAGAGCCUUGGUUUUUUG	-2.96

Variant	polymerase ribozyme fitness (log ratio)
GACGAAUCUGCCCUCAGAGCUCGAGAACAUCUUCGGAUGCAGAGGAGGCUGGCUUCGGUGGCGCGAUAGCGCCAACGUCCUCAACCUCCAAUGCAUCCCACCACAUGAUGAUGCCUGAAGAGCCUUGGUUUUUUG	-3.4
GACCAUUCUGCCCUCAGAGCUCGAGAACUUCUUAGGAUGCAGAGGAGGCAGGCUUCGGUGGCGCGAUAUCGCCAACGUCCUCAACCUCCGAUGCUUCCCACCACAUGAUGAUGCCUGAAGAGCCUUGGUUUUUUG	-2.59
GACCAAUCUGCCCUCAGAGCUCGAGAACAUCUUCGGAUGCAGAGGAGGCAGGCUUCGGUGGCGCGAUAGCGCCAACGCCCUCAACCUCCAAUGAAUCCCACCACAUGAUGAUGCCUGAAGAGCCUUGGUUUUUUG	-0.785
GACCAAUCUGCCCUCAGAGCUCGAGAGCAUCUUCGGAUGCGGAGGAGGCAGGCUUCGGUGGCGCGAUAGCGCCAACGUCCUCAACAUCCAAUGCAUCCCACCACAUGAUGAUGCCUGAAGAGCCUUGGUUUUUUG	-2.64
GACCAAUCUGCCCUCAGAGCUCGAGAACAUCUUCGGAUGCCGAGGAGGCAGGCUUCGGUGGCGCGAUAGCGCCAACGUCCUCAACCUCCAAUGCAUCCCACCACAUGAUGAUGCCUUAAGAGCCUUGGUUAUUUG	-4.61
GACCAAUCUGCGCUCAGAGCUCGAGAACAUCUUCGGAUGCAGAGGAGGCAGGCUUCGGUGGGGCGAUAGCGGCAACGUCCUCAACCACCAAUGCAUCCCACCACAUGAUGAUUCCUGAAGAGCCGUGGUUUUUUG	-5.49
GACCAAUCUGCCCUCAGAGCUCGAGAACAUCUUCGGAUGCAGAGGAGGAAGGCUUCGGUGGCGCGAUAGCGCCAACGACCUCAACCUCCAAUGCAUCCCACCACAUGAUGAUGCCUGAACAGCCUUGGUUUUUUG	0.377
GACCAAUCUGCCCUCAGAGCUCGAGAACAUCUUCGGAUGAAGAGGAGGCAGGCUUCGGUGCCGCGAUAGCGCCAACGUGCUCAACCUCCAAUGCAUCCCACCACAUGAUGAUGCCUGAAGAGCCUUGGUUUUUUG	-3.56
GACCAAUCUGCCCUCAGAGCUCGAGAACAUCUUCGGAUGCAGAGGAGGCAGGCUUAGGUGGUGCGAUAGCGCCAACGUCCUCAAUCUCCAAUGCAUCCCACCACAUGAUGAUGCCUGAAGAGCCUUGGUUUUUUG	-1.64
GACCAAUCUGCCCUCAGAGCUCGAGAACAUCUUCGGAUGCAGAGGAGGCAGGCUUCGGUGGCGCGAUAUCGCGAACGUCAUCAACCUCCAAUGCAUCCCACCACAUGAUGAUGCCUGAAGAGCCUUGGUUUUUUG	-7.09
GACCAAUCUGCCCUCAGAGCUCGAGAACAUCUUCGGAUGCAGAGGAGGCAGGCUUCGGUGGCUCGAUAGCGCCAACGUCCUCAACCUCCAAUGCAUCCCACCACAUGAUGAUGCCUGAAGAGCCUUGGUUCAUUG	-1.24
GACCAAUCUGCCCUCAGAGCUCGAGAACAUCUUCGGAUGCAGAGGAGUCAGGCUUCGGUGGCGCGAUAGCGCCAACGUCCUCAACCUUCAAUGCAUCCCACCACAUGAUAAUGCCUGAAGAGCCUUGGUUUUUUG	-1.01
GACUAAUCUGCCCUCAGAGCUCGAGAACAUCUUCGGAUGCAGAGGAGGCAGGCUUCGGUGGCGCGAUAGCACCAACGUCCUCAACCUCCAAUGCAUCCCACCACAUGAUGAUGCCUGAAGAGCCUUGGUUUUUUG	-0.833
GACCAAUCUGCCCUCAGAGCUCGAGAAUAUCUUCGGAUGCAGCGGAGGCAGGCUUCGGUGGCGCGAUAGCGCCAACGUCCUCAACCUCCAAUGCAUCCCACCACAUGAUGAUGCCUGAAGAGCCUUGGUUUUUUG	-4.69
GACCAAUCUGCCCGCAGAGCUCGAGAACAUCUUCGGAUGCAGAGGAGGCAGGCUUUGGUGGCGCGAUAGAGCCAACGUCCUCCACCUCCAAUGCAUCCCACCAGAUGAUAAUGCCAGAAGAGCCUUGGUUUUUUG	-5.43
GACCAAUCUGCCCUCAGAGCUCGAGAACAUCUUCGGAUGCAGAGGAGGCAGGCUUCGGUGGCGCGAUAGCGCCAAAGUGCUCAACCUCCAAUGCAUCCCACCACAUGAUGAUGCCUGAAGAGGCUUGGUUUUUUG	0.511
GACCAAUCUGCCCUCAGAGCUCGAGAACAUCUUCGGAUGCAGAGGAGGCAGGCUUCGGUGGCGCGAUAGCGCGUACGUCCUCAACCUCUAAUGCAUCCCACCACAUGAUGAUGCCUGAAGAGCCUUGGUUUUUUG	-2.48
GACCAAUCUGCGCUCAGAGCUCGAGAACAUCUUCGGAUGCAGAGGAGGCAGGCUUCGGUGGCGCGAUAUCGCCAACGUCCUCAACCUCCAAUGCAUCCCACCACAUGAUGAUGCCUGAAGAGCCUUGGUUUUUUG	0.711
GACCAAUCUGCCCUCAGAGCUCGAGAACAUCUUCGGAUGCAGAGAAGGCAGGCUUCGGUGGCGCGAUAGCGCUAACGUCCUCAACCUCCAAUGCAUCCCACCACAUGAUGAUGCCUGAAGAGCCUUGGUUUUUUG	-1.34
GACCUAUGUGCCCUCAGAGCUCGAGAACAUCUUCGGAUGCAGAGGAGGCAGGCUUCGGUGGCGCGAUAGCGCCAACGUCAUCUACCUCCAAUGCAUCCCACCACAUGAUGAUGCCUGAAGAGCCUUGGUUUUUUG	-3.88
GACCAAUCUGCCCUCAGAGCUCGAGAACAUCUUCGGAUGCAGAUGAGGCAGGCUUCGGUGUCGCGAUAGCGCCAACGUCCUCAACCUCCAAUGCAUCCCACCACAUGAUGAUGCCUGAAGAGCCUUGGUUUUUUG	-0.394

Source: the RNAGym collection of RNA variant scans (doi:10.1073/pnas.2313332121)
